The results in this text go back to patent US20140303084.

One data set concerns the target T1, compound 5.
T1 chain: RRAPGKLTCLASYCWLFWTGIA

Another data set deals with T2, compound 1 (not fully specified).
T2 chain: KLTCLASYCWLF

B1: human Factor VIIa (protein)
chain: ANAFLEELRPGSLERECKEEQCSFEEAREIFKDAERTKLFWISYSDGDQCASSPCQNGGSCKDQLQSYICFCLPAFEGRNCETHKDDQLICVNENGGCEQYCSDHTGTKRSCRCHEGYSLLADGVSCTPTVEYPCGKIPILEKRNASKPQGRIVGGKVCPKGECPWQVLLLVNGAQLCGGTLINTIWVVSAAHCFDKIKNWRNLIAVLGEHDLSEHDGDEQSRRVAQVIIPSTYVPGTTNHDIALLRLHQPVVLTDHVVPLCLPERTFSERTLAFVRFSLVSGWGQLLDRGATALELMVLNVPRLMTQDCLQQSRKVGDSPNITEYMFCAGYSDGSKDSCKGDSGGPHATHYRGTWYLTGIVSWGQGCATVGHFGVYTRVSQYIEWLQKLMRSEPRPGVLLRAPFP
Turning to B1, in the data set with compound 5, the Δ kM of FVIIa, FXa generation assay was determined as 0.3 and the Δ kcat of FVIIa, FXa generation assay came to 2420 fold.

B2: mouse FIXa (protein)
chain: YNSGKLEEFVRGNLERECIEERCSFEEAREVFENTEKTTEFWKQYVDGDQCESNPCLNGGICKDDISSYECWCQVGFEGRNCELDATCNIKNGRCKQFCKNSPDNKVICSCTEGYQLAEDQKSCEPTVPFPCGRASISYSSKKITRAETVFSNMDYENSTEAVFIQDDITDGAILNNVTESSESLNDFTRVVGGENAKPGQIPWQVILNGEIEAFCGGAIINEKWIVTAAHCLKPGDKIEVVAGEYNIDKKEDTEQRRNVIRTIPHHQYNATINKYSHDIALLELDKPLILNSYVTPICVANREYTNIFLKFGSGYVSGWGKVFNKGRQASILQYLRVPLVDRATCLRSTTFTIYNNMFCAGYREGGKDSCEGDSGGPHVTEVEGTSFLTGIISWGEECAMKGKYGIYTKVSRYVNWIKEKTKLT
Turning to B2, the “Vmax, FXa generation assay” value with compound 1 is reported as “the Vmax is greatly reduced with mFIXa compared to hFIXa”.
